Measurements from PMC2670953 (Journal of molecular biology, 2009).

Biological target: DNA polymerase II (Pol II) of E. coli (E. coli, UniProt P21189 1-783)
Assay: SPR

DNA polymerase II (Pol II) of E. coli, sequence (P21189 whole entry): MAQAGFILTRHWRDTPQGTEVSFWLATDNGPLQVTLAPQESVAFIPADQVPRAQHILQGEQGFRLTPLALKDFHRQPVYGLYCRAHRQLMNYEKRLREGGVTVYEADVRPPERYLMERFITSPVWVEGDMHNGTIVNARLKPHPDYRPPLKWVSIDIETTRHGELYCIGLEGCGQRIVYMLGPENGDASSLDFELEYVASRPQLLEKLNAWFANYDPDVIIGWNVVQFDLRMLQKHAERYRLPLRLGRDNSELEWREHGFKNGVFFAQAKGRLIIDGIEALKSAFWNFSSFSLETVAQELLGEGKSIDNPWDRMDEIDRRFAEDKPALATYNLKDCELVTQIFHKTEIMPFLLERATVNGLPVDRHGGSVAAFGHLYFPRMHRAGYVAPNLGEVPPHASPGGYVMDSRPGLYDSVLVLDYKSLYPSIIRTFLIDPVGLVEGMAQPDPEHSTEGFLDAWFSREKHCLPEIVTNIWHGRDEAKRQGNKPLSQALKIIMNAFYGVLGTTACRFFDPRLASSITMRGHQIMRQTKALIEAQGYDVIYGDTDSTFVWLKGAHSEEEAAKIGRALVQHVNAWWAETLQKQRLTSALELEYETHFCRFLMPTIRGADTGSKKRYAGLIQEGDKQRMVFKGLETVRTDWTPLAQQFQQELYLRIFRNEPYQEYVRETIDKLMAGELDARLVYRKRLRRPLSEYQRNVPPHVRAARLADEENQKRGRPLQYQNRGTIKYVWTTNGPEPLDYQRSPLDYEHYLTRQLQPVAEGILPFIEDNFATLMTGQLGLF

B1: mutant β^148–152 sliding clamp, N-terminally His6 and cAMP-dependent kinase motif tagged (natural protein, E. coli)
chain: MKFTVEREHLLKPLQQVSGPLGGRPTLPILGNLLLQVADGTLSLTGTDLEMEMVARVALVQPHEPGATTVPARKFFDICRGLPEGAEIAVQLEGERMLVRSGRSRFSLSTLPAADFPNLDDWQSEVEFTLPQATMKRLIEATQFSMAAAAAAYYLNGMLFETEGEELRTVATDGHRLAVCSMPIGQSLPSHSVIVPRKGVIELMRMLDGGDNPLRVQIGSNNIRAHVGDFIFTSKLVDGRFPDYRRVLPKNPDKHLEAGCDLLKQAFARAAILSNEKFRGVRLYVSENQLKITANNPEQEEAEEILDVTYSGAEMEIGFNVSYVLDVLNALKCENVRMMLTDSVSSVQIEDAASQSAAYVVMPMRL
  Kd: 182 nM
  koff: 0.00273 s⁻¹
  kon: 15100 M⁻¹ s⁻¹
